{"source": "IntAct's records for PubMed 16286470", "parents": {"B1": {"name": "Dual specificity protein phosphatase 1 (Homo sapiens), P28562 (parent)", "chain": "MVMEVGTLDAGGLRALLGERAAQCLLLDCRSFFAFNAGHIAGSVNVRFSTIVRRRAKGAMGLEHIVPNAELRGRLLAGAYHAVVLLDERSAALDGAKRDGTLALAAGALCREARAAQVFFLKGGYEAFSASCPELCSKQSTPMGLSLPLSTSVPDSAESGCSSCSTPLYDQGGPVEILPFLYLGSAYHASRKDMLDALGITALINVSANCPNHFEGHYQYKSIPVEDNHKADISSWFNEAIDFIDSIKNAGGRVFVHCQAGISRSATICLAYLMRTNRVKLDEAFEFVKQRRSIISPNFSFMGQLLQFESQVLAPHCSAEAGSPAMAVLDRGTSTTTVFNFPVSIPVHSTNSALSYLQSPITTSPSC"}}, "data": [{"variants_of": "B1", "conditions": "with ubb_human UBB", "values": [{"variant": "MVMEVGTLDAGGLRALLGERAAQCLLLDCRSFFAFNAGHIAGSVNVRFSTIVRRRAKGAMGLEHIVPNAELRGRLLAGAYHAVVLLDERSAALDGAKRDGTLALAAGALCREARAAQVFFLKGGYEAFSASCPELCSKQSTPMGLSLPLSTSVPDSAESGCSSCSTPLYDQGGPVEILPFLYLGSAYHASRKDMLDALGITALINVSANCPNHFEGHYQYKSIPVEDNHKADISSWFNEAIDFIDSIKNAGGRVFVHCQAGISRSATICLAYLMRTNRVKLDEAFEFVKQRRSIIAPNFSFMGQLLQFESQVLAPHCSAEAGSPAMAVLDRGTSTTTVFNFPVSIPVHSTNSALSYLQSPITTSPSC", "note": "[S296A]", "effect of a mutation on the interaction": "decreasing interaction"}, {"variant": "MVMEVGTLDAGGLRALLGERAAQCLLLDCRSFFAFNAGHIAGSVNVRFSTIVRRRAKGAMGLEHIVPNAELRGRLLAGAYHAVVLLDERSAALDGAKRDGTLALAAGALCREARAAQVFFLKGGYEAFSASCPELCSKQSTPMGLSLPLSTSVPDSAESGCSSCSTPLYDQGGPVEILPFLYLGSAYHASRKDMLDALGITALINVSANCPNHFEGHYQYKSIPVEDNHKADISSWFNEAIDFIDSIKNAGGRVFVHCQAGISRSATICLAYLMRTNRVKLDEAFEFVKQRRSIISPNFSFMGQLLQFESQVLAPHCSAEAGSPAMAVLDRGTSTTTVANAPVSIPVHSTNSALSYLQSPITTSPSC", "note": "[F339A;F341A]", "effect of a mutation on the interaction": "decreasing interaction"}, {"variant": "MVMEVGTLDAGGLRALLGERAAQCLLLDCRSFFAFNAGHIAGSVNVRFSTIVRRRAKGAMGLEHIVPNAELRGRLLAGAYHAVVLLDERSAALDGAKRDGTLALAAGALCREARAAQVFFLKGGYEAFSASCPELCSKQSTPMGLSLPLSTSVPDSAESGCSSCSTPLYDQGGPVEILPFLYLGSAYHASRKDMLDALGITALINVSANCPNHFEGHYQYKSIPVEDNHKADISSWFNEAIDFIDSIKNAGGRVFVHCQAGISRSATICLAYLMRTNRVKLDEAFEFVKQRRSIISPNFSFMGQLLQFESQVLAPHCSAEAGAPAMAVLDRGTSTTTVFNFPVSIPVHSTNSALSYLQSPITTSPSC", "note": "[S323A]", "effect of a mutation on the interaction": "decreasing interaction"}]}, {"variants_of": "B1", "conditions": "with skp2_human SKP2, Q13309", "values": [{"variant": "MVMEVGTLDAGGLRALLGERAAQCLLLDCRSFFAFNAGHIAGSVNVRFSTIVRRRAKGAMGLEHIVPNAELRGRLLAGAYHAVVLLDERSAALDGAKRDGTLALAAGALCREARAAQVFFLKGGYEAFSASCPELCSKQSTPMGLSLPLSTSVPDSAESGCSSCSTPLYDQGGPVEILPFLYLGSAYHASRKDMLDALGITALINVSANCPNHFEGHYQYKSIPVEDNHKADISSWFNEAIDFIDSIKNAGGRVFVHCQAGISRSATICLAYLMRTNRVKLDEAFEFVKQRRSIIAPNFSFMGQLLQFESQVLAPHCSAEAGSPAMAVLDRGTSTTTVFNFPVSIPVHSTNSALSYLQSPITTSPSC", "note": "[S296A]", "effect of a mutation on the interaction": "decreasing interaction"}]}]}
